Reference: US10106589B2, “Compositions and methods for immunomodulation” (FUNDACIO INSTITUT D'INVESTIGACIO BIOMEDICA DE BELLVITGE …, priority 2011, dated 2018)

Tested on: immature Mo-DCs
Assay: Endocytic activity (DQ-OVA uptake)
Assay type: cell-based, human
Parameters: key: (−) negligible; (+) low; (++) moderate; (+++) high
Settings: functional assay
Procedure: To measure the phagocytic activity of iDCs, 2×10^5 cells/ml were resuspended in 100 μl of PBS and incubated with 4 μl of BODIPY FL-conjugated DQ-Ovalbumin (1 mg/ml, DQ-OVA, Molecular Probes, Leiden, Netherlands) at 37° C. or at 0° C. for 15 min. The incubations were stopped by adding 1 ml of cold FACS buffer. The cells were washed two times with cold FACS buffer and their fluorescence analyzed using a FACScalibur flow cytometer (Becton-Dickinson).

B1: C4BP (β^−): C4BP isoforms lacking beta chain: C4BP (α7β0) or C4BP (α6β0) (protein, UniProt P04003 49-597, looked up)
C4b-binding protein alpha …: NCGPPPTLSFAAPMDITLTETRFKTGTTLKYTCLPGYVRSHSTQTLTCNSDGEWVYNTFCIYKRCRHPGELRNGQVEIKTDLSFGSQIEFSCSEGFFLIGSTTSRCEVQDRGVGWSHPLPQCEIVKCKPPPDIRNGRHSGEENFYAYGFSVTYSCDPRFSLLGHASISCTVENETIGVWRPSPPTCEKITCRKPDVSHGEMVSGFGPIYNYKDTIVFKCQKGFVLRGSSVIHCDADSKWNPSPPACEPNSCINLPDIPHASWETYPRPTKEDVYVVGTVLRYRCHPGYKPTTDEPTTVICQKNLRWTPYQGCEALCCPEPKLNNGEITQHRKSRPANHCVYFYGDEISFSCHETSRFSAICQGDGTWSPRTPSCGDICNFPPKIAHGHYKQSSSYSFFKEEIIYECDKGYILVGQAKLSCSYSHWSAPAPQCKALCRKPELVNGRLSVDKDQYVEPENVTIQCDSGYGVVGPQSITCSGNRTWYPEVPKCEWETPEGCEQVLTGKRLMQCLPNPEDVKMALEVYKLSLEIEQLELQRDSARQSTLDKEL
- Endocytosis (DQ-OVA): +
